In the nanobody polyreactivity screen of Harvey et al. (2022):

Experiment: yeast display, Sf9 membrane polyspecificity reagent, FACS + sequencing; frameworks hold sequencing errors
Summary of the method: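 Polyreactivity labels are assigned by the sorting gate from which each nanobody was recovered. The gates were low and high (top ~1%), set on anti-HA fluorescence for expression and streptavidin fluorescence for reagent binding. Before sorting, galactose-induced (36–48 hours) yeast display cells were stained for 1 hour at 4 °C with 10% biotinylated, detergent-solubilized Sf9 membrane reagent.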

Sequence | polyreactivity (PSR sort gate)
QVQLVESGGGLVQAGGSLRLSCAASGSILYGNAMGWYRQAPGKERELVAAITTSGGRTYYADSVKGRFTISRDNAKNTVYLQLTSLKPEDTAVYYCAAASPTPVNWSGRDYYYWGQGTQVTVSS | high polyreactivity
QVQLVESGGGLVQAGGSLRLTCAASGFTIGYYAMGWYRQAPGKERELVAAISWSGGRTYYADSVKGRFTISRDNAKNTVYLQMNSLKPEDTAVYDCAADGQQTYSGYDYWGQGTQVTVSS | high polyreactivity
QVQLVESGGGLVQAGGSLRLSCAASGSTFRYYTMGWYRQAPGKERELVAAITWSGGSTYYADSVKGRFTISRDNAKNTVYLQMNSLKPEDTAVYYCNARSLQWTPRAYYYWGQGTQVTVSS | high polyreactivity
QVQLVESGGGLDQAGGSLRLSSAASGLTFVTYAMGWYRQAPGTERELVAAISYSGGSTYYADSVKGRFTISRDNAKNTVYLQMNSLKPEDTAVYYCNARSPQPDGRPPYNYWGQGTQVTVSS | high polyreactivity
QVQLVESGGGLVQAGGSLRLSCAASGSIFYNNSKGWYRPAPGKERELVAAISLRGGSTYYADSVKGRFTISRDNAKNTVYLQMNSLKPEDSAVYYCAAVTGARYYPARASRGKFDYWGQGTQVTVSS | high polyreactivity
QVQLVESGGGLVQAGGSLRLSCAASGRTFRLYAMGWYRQAPGKERELVAAISWRGGSTYYADSVKGRFTISRDNAKNTVYLQMNSLKPEDTAVYYCAAGTSRHLSNGYYYWGQGTQVTVSS | high polyreactivity
QVQLVESGGGLVQAGGSLRLSCAASGSIFGTNAMGWYRQAPGKERELVAAIRGSGGRTYYADSVKGRFTISRDNAKNTVYLQMNSLKPEDTAVYYCAARWGPYYGGVRYGYWGQGTQVTVSS | high polyreactivity
QVQLVESGGGLVQAGGSLRLICAASGFTFVRYTMGWYRQAPGKERELVAVIRRGGSTYYADSVKGRFTISRDNAKNTVYLQMNSLKPEDTAVYYCNALSALAVEDGYWGQGTQVTVSS | low polyreactivity
QVQLVESGGGLVQAGGSLRLSCAASGSNFGYNAIGWYRKAPGKEREFVAGISWSGGRTYYADSEKGRFTISRDNAKNTVYLQMNSLKPEDTAVYYCAAPSRPAPRFDYWGQGTQVTVSS | low polyreactivity
QVQLVESGGGLVQAGGSLRLSCAASGSIFNLYAMGWYRQAPGKERELVATITWSGGSTYYADSVKGRFTISRDNAKNTVYLQMNSLKPEDTAVYYCAATALEWYPAVYNQYYYWGQGTQVTVSS | low polyreactivity
QVQLVESGGGLVQAGGSLRLSCAASGSISPWYAMGWYRQAPGKERELVAAIRGNGGSTYYADSVKGRFTISRDNAKNTVYLQMNSLKPEDTAVYYCNAVYRRPIFYYWGQGTQVTVSS | low polyreactivity
QVQLVESGGGLVQAGGSLRLSCAASGFTFGPYAMGWYRQAPGKERELVAGITWSGASTYYADSVKGRFTISRDNAKNTVYLQMNSLKPEDTAVYYCARYYRLGSRYDYWGQGTQVTVSS | low polyreactivity
QVQLVESGGGLVQAGGSLRLSCAASGRIFWDYGMGWYRQAPGKERELVAVITWGGGSTYYADSVKGRFTISRDNAKNTVYLQMNSLKPEDTAVYYCAKEYHYYYWGQGTQVTVSS | low polyreactivity
QVQLVESGGGLVQAGGSLRLSCAASGRIFYYYAMGWSRQAPGKERELVAGISYSGGRTYYADSVKGRFTISRDNAKNTVYLQMNSLKPEDTAVYYCAAAYRGANYGYGFDYWGQGTQVTVSS | high polyreactivity
QVQLVESGGGLVQAGGSLRLSCAASGSTFRYYTMGWYRQAPGKERELVARISWSGGSTYYADSVKGRFTISRDNAKNTVYLQMNSLKPEDTAVYYCNAVLFYFQTRDYWGQGTQVTVSS | high polyreactivity
QVQLVETGGGLVQAGGSLRLSCAASGLIFYRYAMGWYRQAPGKERELVAVITRSGGNTNYADSVKGRFTISRDNAKNTVYLQMNSLKPEDTAVYYCATRGIWKKVPYYYWGQGTQVTVSS | high polyreactivity

Sequence | polyreactivity (PSR sort gate)
QVQLVESGGGLVQAGGSLRLSCAASGRIFYSNVMGWYRQAPGKERELVAAISGRTGGTYYADSVKGRFTISRDNAKNTVYLQMNSLKPEDTAVYYCAARVGWNKRRYDYWGQGTQVTVSS | low polyreactivity
QVQLVESGGGLVQAGGSLRISCAASGITITSYAMGWYRQAPGKEWELVASIDSDDSTNYADSVKGRFTISRDNAKNTVYFQMNSLKPEDNAVYYSAATSKPLGLKTYGYWGQGTQVTVSS | low polyreactivity
QVQLVESGGGLVQAGGSLRLSCAASGSTFAPNTMGWYRQAPGKERELVARITSSDGSTTYADSVKGRFTISRDNAKNTVYLQRNSLKPEDTAVYYCAADYGRRWGYDYWGQGTQVTVSS | low polyreactivity
QVQLVESGGGLVQAGGSLRITCAASGSTFYGKSMGLYRQAPGKERELVAAISRGGGSTYYADSVKGRFTISRDNAKNTVYLQMNSLIPEDTAVYYCAGTRYLHPWYYPYYYWGQGTQVTVSS | low polyreactivity
QVQLQESGGGLVKAGGSLRLSCAASGYLILQYAMGWYRPAPGKERELVASIARGTSTYYADSVKGRFTISRDNAKNTVYLQMNSLKPEDTAVYYCAVIYSWGLWHDYWGQGTQVTVSS | high polyreactivity
QVQLVESRGGLVQAGGSLRLSCAASGSIFAIYTMGWYRQAPGKERELVAAITGNGGRTYYADSVKGRFTISRDNAKNTVYLQMNSLKPEDTAVYYCAVVGYHRDYDYWGQGTQVTVSS | low polyreactivity
QVQLVESGGGLDQAGGSLRLSCAASGSIFDSNAMGWYRQAPGKERELVAAISLSGGSTYYADSVKGRFTISRDNAKNTVYLQMNSLKPEDTAVYYCAKDGWYEYYWGQGTQVTVSS | low polyreactivity
QVQLVESGGGLVQAGGSLRLSCAASGRIFRYNAMVWNIQAPGKERELDAAISYRGTRTYYADSVKGRFTISRDNAKNTVYLQMNSLKPEDTAVYYCAKDSGYYTADDYDYWGQVTQVTVSS | low polyreactivity
QVQLEESGGGLVQAGGSLRLSCAASVSIFESYAKGWNRQAPGKEREFVAAISDSGADTYYADSVKGRFTISRDNAKNTVYLQMNCLKPEDTAVYYCATDDYFSSYGYFLDGYWGQGTQVTVSS | low polyreactivity
QVQLVESGGGLVQAGGSLRLSCAASGFTFVYYTMGWYRPAPWKERELVAAITWRGSTYYADSVKGRFTISRDNAKNTVYLQMNSLKPEDTAVYYCAARYRVLLRHREYDYWGQGTQVTVSS | high polyreactivity
QVQLVESGGGLVQAGGSLRLTCAASGNIFKVYAMGWSRQAPGKERELVAAITSGGGTKYADSVKGRFTISRDNAKNTVYLQMNSLKPEDTAVYYCAARFKYDVAKRYGYWGQGTQVTVSS | high polyreactivity
QVQLLESGGGLVQAGGSLRLSCAPSGRIFGYYAMGWYRQEPGKERELVAAISRGGSTNYADSVKGRFTISRDNAKNTVYLQMNSLKPEDTAVYYCAALVYRSYNNYYWGQGTQVTVSS | high polyreactivity
QVQLVESGGGLVQAGGSLRLSCAASGSIFGTNAMGGYRQAPGKERELVAAIRGSGGRTYYADSVKGRFTISRDKAKNTVYLEMNSLKPEDSAVYYCAAPGNPYCWGYNYYYWGQGTQVTVSS | high polyreactivity
QVQLVESGGGLVQAGGSLRLSCAASGSTFWFNAMGGSRQAPGKERELVAAIPSRGGYTYYADSVKGRFTISRDHAKNTVYLQMNSLKPEDTAVYYCAADYRYSSRKVFHFDYWGQGTQVTVSS | low polyreactivity
HVQLVESGGGLVQAGGSLRLSCAASRRTFGWYAMGWYRQAPGKERELVAAISLSGGSTYYADSVKGRFTISRDNAKNTVYLQRNSLKPDVTAVYDCAAADYWLGYDYWGQGSQVTVSS | low polyreactivity
QVQLVESGGGLVQAGGSLRLSCAASGSIIRAYAMGWYRQAPGKERELVAAITIGDSTYYADSVKGRFTISRDNAKNTVYLQMNSLKPEDTAVYYCAAKSQHLYTRRFNYWGQGTQVTVSS | low polyreactivity
